Measurements as given in US20250243284A1.

Legend:
[1] = biological target: FGFR2 isoform FGFR2-IIIb (FGFR2b), on the surface of cancer cell lines (UniProt P21802); assay: flow cytometry on BT20 cells (TNBC), detected with APC anti-human IgG1
[2] = biological target: FGFR2 isoform FGFR2-IIIb (FGFR2b), on the surface of cancer cell lines (UniProt P21802); assay: flow cytometry on HCC38 cells (TNBC), detected with APC anti-human IgG1
[3] = biological target: FGFR2 isoform FGFR2-IIIb (FGFR2b), on the surface of cancer cell lines (UniProt P21802); assay: flow cytometry on HCC1187 cells (TNBC), detected with APC anti-human IgG1
[4] = biological target: FGFR2 isoform FGFR2-IIIb (FGFR2b), on the surface of cancer cell lines (UniProt P21802); assay: flow cytometry on HCC1569 cells (TNBC), detected with APC anti-human IgG1
[5] = biological target: FGFR2 isoform FGFR2-IIIb (FGFR2b), on the surface of cancer cell lines (UniProt P21802); assay: flow cytometry on HCC1806 cells (TNBC), detected with APC anti-human IgG1
[6] = biological target: FGFR2 isoform FGFR2-IIIb (FGFR2b), on the surface of cancer cell lines (UniProt P21802); assay: flow cytometry on HCC1937 cells (TNBC), detected with APC anti-human IgG1
[7] = biological target: FGFR2 isoform FGFR2-IIIb (FGFR2b), on the surface of cancer cell lines (UniProt P21802); assay: flow cytometry on HARA cells (squamous lung cancer), detected with APC anti-human IgG1
[8] = biological target: FGFR2 isoform FGFR2-IIIb (FGFR2b), on the surface of cancer cell lines (UniProt P21802); assay: flow cytometry on LC1F cells (squamous lung cancer), detected with APC anti-human IgG1
[9] = biological target: FGFR2 isoform FGFR2-IIIb (FGFR2b), on the surface of cancer cell lines (UniProt P21802); assay: flow cytometry on SW900 cells (squamous lung cancer), detected with APC anti-human IgG1
[10] = biological target: FGFR2 isoform FGFR2-IIIb (FGFR2b), on the surface of cancer cell lines (UniProt P21802); assay: flow cytometry on KNS-62 cells (squamous lung cancer), detected with APC anti-human IgG1
[11] = biological target: FGFR2 isoform FGFR2-IIIb (FGFR2b), on the surface of cancer cell lines (UniProt P21802); assay: flow cytometry on LUDLU1 cells (squamous lung cancer), detected with APC anti-human IgG1
[12] = biological target: FGFR2 isoform FGFR2-IIIb (FGFR2b), on the surface of cancer cell lines (UniProt P21802); assay: flow cytometry on SW1573 cells (squamous lung cancer), detected with APC anti-human IgG1
[13] = biological target: FGFR2 isoform FGFR2-IIIb (FGFR2b), on the surface of cancer cell lines (UniProt P21802); assay: flow cytometry on NCIH2170 cells (squamous lung cancer), detected with APC anti-human IgG1
[14] = biological target: FGFR2 isoform FGFR2-IIIb (FGFR2b), on the surface of cancer cell lines (UniProt P21802); assay: flow cytometry on EPLC-272H cells (squamous lung cancer), detected with APC anti-human IgG1
[15] = biological target: FGFR2 isoform FGFR2-IIIb (FGFR2b), on the surface of cancer cell lines (UniProt P21802); assay: flow cytometry on SNU16 cells (gastric cancer, positive control), detected with APC anti-human IgG1
[16] = biological target: FGFR2 isoform FGFR2-IIIb (FGFR2b), on the surface of cancer cell lines (UniProt P21802); assay: flow cytometry on KATOIII cells (gastric cancer, positive control), detected with APC anti-human IgG1
[17] = biological target: FGFR2 isoform FGFR2-IIIb (FGFR2b), on the surface of cancer cell lines (UniProt P21802); assay: flow cytometry on SNU16-Luc cells (gastric cancer, positive control), detected with APC anti-human IgG1

Mean Fluorescence Intensity by FACS [1]: 252 MFI
Mean Fluorescence Intensity by FACS [2]: 346 MFI
Mean Fluorescence Intensity by FACS [3]: -6 MFI
Mean Fluorescence Intensity by FACS [4]: 1360 MFI
Mean Fluorescence Intensity by FACS [5]: 401 MFI
Mean Fluorescence Intensity by FACS [6]: 690 MFI
Mean Fluorescence Intensity by FACS [7]: 401 MFI
Mean Fluorescence Intensity by FACS [8]: 123 MFI
Mean Fluorescence Intensity by FACS [9]: 10.3 MFI
Mean Fluorescence Intensity by FACS [10]: 572 MFI
Mean Fluorescence Intensity by FACS [11]: 638 MFI
Mean Fluorescence Intensity by FACS [12]: -1.2 MFI
Mean Fluorescence Intensity by FACS [13]: 153 MFI
Mean Fluorescence Intensity by FACS [14]: 759 MFI
Mean Fluorescence Intensity by FACS [15]: 7800 MFI
Mean Fluorescence Intensity by FACS [16]: 20400 MFI
Mean Fluorescence Intensity by FACS [17]: 7960 MFI
B1: bemarituzumab (antibody, human IgG1, kappa, V domains shown)
VH: QVQLVQSGAEVKKPGSSVKVSCKASGYIFTTYNVHWVRQAPGQGLEWIGSIYPDNGDTSYNQNFKGRATITADKSTSTAYMELSSLRSEDTAVYYCARGDFAYWGQGTLVTVSS
VL: DIQMTQSPSSLSASVGDRVTITCKASQGVSNDVAWYQQKPGKAPKLLIYSASYRYTGVPSRFSGSGSGTDFTFTISSLQPEDIATYYCQQHSTTPYTFGQGTKLEIKR
modifications: afucosylated: glycan at Asn297 (EU numbering) lacks core fucose
